Results on 1 molecule are retold here after patent US20050245438A1 (SALK INSTITUTE FOR BIOLOGICAL STUDIES, published 2005).

Bridge positions count the residues as written; N and C are the ends. Square brackets hold non-standard residues; d marks the D form. * marks the point of attachment. Phe(4-NH2) = Nc1ccc(C[C@H](N)C(=O)O)cc1; Carbamoyl = NC(=O)*

The IC50 is the concentration needed to halve the response being measured.

Assay in all cases: radioligand displacement (125I-[Leu8,D-Trp22,Tyr25]SRIF-28), membrane pellet sections
A general note: In a radioligand displacement assay an active substance lowers the binding of a labelled ligand.

Assay [1] addresses T1, cloned human SRIF receptor SSTR1 (human, UniProt P30872 1-391).
T1 construct: whole, on cells; also called hSSTR1
The procedure:
(§1) Cells are washed twice with and scraped into ice-cold 0.05 M Tris-HCl (pH 7.4), collected by centrifugation, and homogenized using a rotor/stator/system in the same buffer. After centrifugation at 120 g for 5 min at 4° C., the supernatant is collected and centrifuged again at 48,000 g for 30 min at 4° C. The resulting pellet is resuspended in ice-cold Tris buffer, transferred into a microfuge tube, and centrifuged at 20,000 g for 15 min at 4° C. After withdrawal of the supernatant, the membrane pellet is stored at −80° C.
(§2) Receptor autoradiography is performed on 20 μm thick cryostat sections of the membrane pellets, mounted on microscope slides, and then stored at −20° C. […] Increasing concentrations of the unlabeled peptide are used ranging from 0.1-1000 nM. Unlabeled somatostatin-28 is run in parallel using the same increasing concentrations, as a control. IC₅₀ values are calculated after quantification of the data using a computer-assisted image processing system as known in this art.

The target of assay [2] is T2, cloned human SRIF receptor SSTR2 (human, UniProt P30874 1-369).
T2 construct: whole, on cells; assayed as cryostat sections of membrane pellets of the transfected cells; also called hSSTR2
The procedure:
as §1, §2

Assay [3] has as its target T3, cloned human SRIF receptor SSTR3 (human, UniProt P32745 1-418).
T3 construct: whole, on cells; assayed as cryostat sections of membrane pellets of the transfected cells; also called hSSTR3
As for the experimental part: as §1, §2

The target in assay [4] is T4, cloned human SRIF receptor SSTR4 (human, UniProt P31391 1-388).
T4 construct: whole, on cells; assayed as cryostat sections of membrane pellets of the transfected cells; also called hSSTR4
As for the experimental part:
as §1, §2

Assay [5] has as its target T5, cloned human SRIF receptor SSTR5 (human, UniProt P35346 1-364).
T5 construct: whole, on cells; assayed as cryostat sections of membrane pellets of the transfected cells; also called hSSTR5
As for the experimental part: as §1, §2

T5 sequence (P35346 whole entry): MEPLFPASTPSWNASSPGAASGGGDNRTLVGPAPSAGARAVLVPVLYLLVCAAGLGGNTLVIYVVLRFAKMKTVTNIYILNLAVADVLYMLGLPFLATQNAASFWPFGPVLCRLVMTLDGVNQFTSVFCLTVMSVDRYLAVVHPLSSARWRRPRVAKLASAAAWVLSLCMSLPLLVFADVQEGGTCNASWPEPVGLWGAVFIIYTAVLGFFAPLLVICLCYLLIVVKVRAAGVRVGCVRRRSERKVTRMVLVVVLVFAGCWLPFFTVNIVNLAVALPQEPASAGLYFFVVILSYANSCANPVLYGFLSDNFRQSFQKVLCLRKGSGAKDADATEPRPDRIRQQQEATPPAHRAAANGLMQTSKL
T3 sequence (P32745 whole entry): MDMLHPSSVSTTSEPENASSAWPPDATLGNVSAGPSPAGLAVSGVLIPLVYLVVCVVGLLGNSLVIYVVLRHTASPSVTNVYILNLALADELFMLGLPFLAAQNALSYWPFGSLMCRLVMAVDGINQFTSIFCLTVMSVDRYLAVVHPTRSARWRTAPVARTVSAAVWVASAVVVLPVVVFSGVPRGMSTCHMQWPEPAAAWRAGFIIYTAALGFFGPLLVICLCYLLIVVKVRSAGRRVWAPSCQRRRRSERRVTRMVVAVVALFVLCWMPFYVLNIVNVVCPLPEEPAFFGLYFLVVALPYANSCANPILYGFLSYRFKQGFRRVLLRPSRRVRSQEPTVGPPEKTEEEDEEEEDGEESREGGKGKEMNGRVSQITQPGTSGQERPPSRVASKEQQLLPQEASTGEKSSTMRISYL
T4 sequence (P31391 whole entry): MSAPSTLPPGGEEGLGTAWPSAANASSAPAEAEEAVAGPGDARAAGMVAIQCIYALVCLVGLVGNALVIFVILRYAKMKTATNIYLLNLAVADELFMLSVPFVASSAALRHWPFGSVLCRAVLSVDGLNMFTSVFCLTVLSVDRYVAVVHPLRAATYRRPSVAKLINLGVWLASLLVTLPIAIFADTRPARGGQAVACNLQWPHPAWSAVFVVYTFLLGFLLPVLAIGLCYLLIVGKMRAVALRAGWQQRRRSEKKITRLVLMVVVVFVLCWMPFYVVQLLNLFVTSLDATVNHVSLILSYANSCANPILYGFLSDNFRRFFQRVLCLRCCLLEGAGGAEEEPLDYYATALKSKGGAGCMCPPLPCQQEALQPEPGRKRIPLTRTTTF
T2 sequence (P30874 whole entry): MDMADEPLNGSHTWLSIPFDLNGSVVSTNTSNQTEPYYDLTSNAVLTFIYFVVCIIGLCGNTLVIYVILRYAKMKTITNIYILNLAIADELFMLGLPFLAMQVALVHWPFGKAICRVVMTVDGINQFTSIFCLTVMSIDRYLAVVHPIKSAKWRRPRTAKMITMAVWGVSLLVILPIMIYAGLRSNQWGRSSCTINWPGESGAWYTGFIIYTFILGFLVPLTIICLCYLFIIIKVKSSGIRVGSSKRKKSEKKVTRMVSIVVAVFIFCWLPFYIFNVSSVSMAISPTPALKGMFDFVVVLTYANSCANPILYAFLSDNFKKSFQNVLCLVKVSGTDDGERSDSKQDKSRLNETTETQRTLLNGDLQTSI
T1 sequence (P30872 whole entry): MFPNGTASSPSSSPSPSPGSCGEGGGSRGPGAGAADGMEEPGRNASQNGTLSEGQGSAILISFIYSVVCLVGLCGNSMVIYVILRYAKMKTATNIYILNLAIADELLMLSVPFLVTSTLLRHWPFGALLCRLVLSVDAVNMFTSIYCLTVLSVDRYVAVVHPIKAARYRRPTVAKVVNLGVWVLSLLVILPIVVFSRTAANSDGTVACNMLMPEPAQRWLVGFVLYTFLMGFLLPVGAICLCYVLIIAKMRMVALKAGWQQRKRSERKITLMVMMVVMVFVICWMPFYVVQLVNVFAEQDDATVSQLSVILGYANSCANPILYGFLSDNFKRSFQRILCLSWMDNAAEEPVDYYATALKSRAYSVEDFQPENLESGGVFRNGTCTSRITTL

B1: (cyclo)Cbm-Cys-Phe-4Aph-D-Trp-Lys-Thr-Phe-Cys-OH (peptide)
peptide: Carbamoyl-CF[Phe(4-NH2)][dW]KTFC-OH
modifications: disulfide 1-8
SMILES: C[C@@H](O)[C@@H]1NC(=O)[C@H](CCCCN)NC(=O)[C@@H](Cc2c[nH]c3ccccc23)NC(=O)[C@H](Cc2ccc(N)cc2)NC(=O)[C@H](Cc2ccccc2)NC(=O)[C@@H](NC(N)=O)CSSC[C@@H](C(=O)O)NC(=O)[C@H](Cc2ccccc2)NC1=O
notes: synthetic cyclic octapeptide; also called Peptide No. 4
For B1, the IC50 amounted to 840 nM in assay [1]; 120 nM in assay [2]; 650 nM in assay [3]; 1.1 nM in assay [4]; 103 nM in assay [5].
